Key:
[1] = target: the molecule itself; assay: size exclusion chromatography, 1 mM ATP against 1 mM ADP; homodimerization
Method: (§1) To evaluate the behavior of the constructs in the presence of ATP and ADP samples of the purified protein (1 mg each) were buffer-exchanged on PD-10 columns (Cytiva 17085101) according to manufacturer instructions. For the buffer exchange PD-10 desalting columns were equilibrated with target buffer (20 mM Tris-Cl pH 8.0, 50 mM NaCl, 5 mM MgCl₂, 10% glycerol) containing either 1 mM ATP or 1 mM ADP. One milligram (100 μl of 10 mg/ml stock) of protein was added to each column along with 2.4 ml of target buffer, the column was centrifuged at 1000×g for 2 minutes in a 50-ml conical tube, and the eluate was collected. Buffer-exchanged proteins were then concentrated to 0.5 ml (˜60 μM) and loaded onto a Superdex S200 Increase column (Cytiva) equilibrated in the appropriate buffer containing ATP or ADP and eluted at 0.5 ml/min.

[2] = target: the molecule itself; assay: size exclusion chromatography, 1 mM ATP against 1 mM ADP; ATP mediated shift read as homodimerization
Method: as §1

Row | Protein | binding result [1] | binding result [2]
1 | Construct 157: Hisx8-anti-BCMA VHH-(G4S)2-CH1-CH2-TAP1 NBD (Cys-less; modified D-helix; D668N)-(G4S)2-anti-CD3 VHH (other, Single polypeptide expressed in E. coli) MHHHHHHHHEVQLVESGGGLVQAGGSLRLSCAASGRTFTMGWFRQAPGKEREFVAAISLSPTLAYYAESVKGRFTISRDNAKNTVVLQMNSLKPEDTALYYCAADRKSVMSIRPDYWGQGTQVTVSSGGGGSGGGGSETEFFQQNQTGGGGSGLQTVRSFGGGGGSGGSGLLTPLHLEGLVQFQDVSFAYPNRPDVLVLQGLTFTLRPGEVTALVGPNGSGKSTVAALLQNLYQPTGGQLLLDGKPLPQYEHRYLHRQVAAVGQEPQVFGRSLQENIAYGLTQKPTMEEITAAAVKSGAHSFISGLPQGYDTEVDEAGSQLSGGQRQAVALARALIRKPSVLILDNATSALDAGNQLRVQRLLYESPERYSRSVLLITQHLSLVEQADHILFLEGGAIREGGTHQQLMEKKGSYWAMVQAPADAPEGGGGSGGGGSGGGGSQVQLVESGGGLVQPGGSLRLSCAASGSIFSANTMGWYRQAPGKQRELVAGMNTSGSTVYGDSVKGRFTISRDNAKNIAYLQMNSLIPEDTAVYYCTLVQRGPNYWGQGTQVTVSS | binds | –
2 | Construct 159: CH1-CH2-TAP1 NBD (Cys-less; modified D-helix; D668N)-(G4S)2-anti-CD3 VHH-(G4S)2-anti-BCMA VHH-Hisx8 (other, Single polypeptide expressed in E. coli) METEFFQQNQTGGGGSGLQTVRSFGGGGGSGGSGLLTPLHLEGLVQFQDVSFAYPNRPDVLVLQGLTFTLRPGEVTALVGPNGSGKSTVAALLQNLYQPTGGQLLLDGKPLPQYEHRYLHRQVAAVGQEPQVFGRSLQENIAYGLTQKPTMEEITAAAVKSGAHSFISGLPQGYDTEVDEAGSQLSGGQRQAVALARALIRKPSVLILDNATSALDAGNQLRVQRLLYESPERYSRSVLLITQHLSLVEQADHILFLEGGAIREGGTHQQLMEKKGSYWAMVQAPADAPEGGGGSGGGGSGGGGSQVQLVESGGGLVQPGGSLRLSCAASGSIFSANTMGWYRQAPGKQRELVAGMNTSGSTVYGDSVKGRFTISRDNAKNIAYLQMNSLIPEDTAVYYCTLVQRGPNYWGQGTQVTVSSGGGGSGGGGSEVQLVESGGGLVQAGGSLRLSCAASGRTFTMGWFRQAPGKEREFVAAISLSPTLAYYAESVKGRFTISRDNAKNTVVLQMNSLKPEDTALYYCAADRKSVMSIRPDYWGQGTQVTVSSHHHHHHHH | – | binds
3 | Construct 156: Hisx8-anti-BCMA VHH-(G4S)2-anti-CD3 VHH-(G4S)2-CH1-CH2-TAP1 NBD (Cys-less; modified D-helix; D668N) (other, Single polypeptide expressed in E. coli; Here CH1-CH2 means Coupling Helix 1 and Coupling Helix 2 (the CAP)) MHHHHHHHHEVQLVESGGGLVQAGGSLRLSCAASGRTFTMGWFRQAPGKEREFVAAISLSPTLAYYAESVKGRFTISRDNAKNTVVLQMNSLKPEDTALYYCAADRKSVMSIRPDYWGQGTQVTVSSGGGGSGGGGSQVQLVESGGGLVQPGGSLRLSCAASGSIFSANTMGWYRQAPGKQRELVAGMNTSGSTVYGDSVKGRFTISRDNAKNIAYLQMNSLIPEDTAVYYCTLVQRGPNYWGQGTQVTVSSGGGGSGGGGSETEFFQQNQTGGGGSGLQTVRSFGGGGGSGGSGLLTPLHLEGLVQFQDVSFAYPNRPDVLVLQGLTFTLRPGEVTALVGPNGSGKSTVAALLQNLYQPTGGQLLLDGKPLPQYEHRYLHRQVAAVGQEPQVFGRSLQENIAYGLTQKPTMEEITAAAVKSGAHSFISGLPQGYDTEVDEAGSQLSGGQRQAVALARALIRKPSVLILDNATSALDAGNQLRVQRLLYESPERYSRSVLLITQHLSLVEQADHILFLEGGAIREGGTHQQLMEKKGSYWAMVQAPADAPEGGGGS | – | binds

Reference: US20250257148A1 (CROSSLINK THERAPEUTICS, published 2025)
